This is an account of results in patent US10487337B2, “Methods for monocot plant improvement” (Agresearch Limited, priority 2014, dated 2019).

The target of one experiment is T1, DELLA (RGA1) (Arabidopsis thaliana, UniProt Q9SLH3).
T1 construct: expressed in transfected cells; host or cells: yeast strain MaV203
T1 sequence (Q9SLH3 with tags, fused parts or gaps): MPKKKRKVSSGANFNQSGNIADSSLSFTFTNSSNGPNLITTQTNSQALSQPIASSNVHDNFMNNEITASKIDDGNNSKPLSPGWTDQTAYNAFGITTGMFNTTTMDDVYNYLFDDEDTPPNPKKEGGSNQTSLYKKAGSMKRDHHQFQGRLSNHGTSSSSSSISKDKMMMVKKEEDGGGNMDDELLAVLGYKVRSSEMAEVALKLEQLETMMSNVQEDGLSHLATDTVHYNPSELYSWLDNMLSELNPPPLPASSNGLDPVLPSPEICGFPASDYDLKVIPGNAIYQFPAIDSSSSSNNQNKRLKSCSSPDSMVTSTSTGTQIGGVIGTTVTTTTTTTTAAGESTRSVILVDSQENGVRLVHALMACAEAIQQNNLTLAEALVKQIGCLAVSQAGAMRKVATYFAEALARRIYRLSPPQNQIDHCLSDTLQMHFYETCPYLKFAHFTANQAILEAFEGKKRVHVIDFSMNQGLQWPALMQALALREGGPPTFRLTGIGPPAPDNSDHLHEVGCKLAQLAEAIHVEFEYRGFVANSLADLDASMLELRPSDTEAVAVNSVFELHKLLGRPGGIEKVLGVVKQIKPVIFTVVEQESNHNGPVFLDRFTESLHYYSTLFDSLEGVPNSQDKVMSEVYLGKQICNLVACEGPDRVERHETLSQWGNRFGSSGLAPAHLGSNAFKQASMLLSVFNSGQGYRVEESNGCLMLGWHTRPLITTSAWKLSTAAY
Kind of experiment: Yeast two-hybrid (Y2H) analysis between PPD and DELLA (RGA1). The experiment is classed as binding. As to conditions: PPD1-DBD as bait, 15 mM 3AT. An excerpt:
The ProQuest two-hybrid system (Invitrogen) was used to analyse interactions between PPD1, and RGA1. Full length coding sequences of PPD1, together with truncation or deletion derivatives of PPD1 (PPD1Δppd, PPD1Δtify, and PPD1Δjas*) (FIG. 5), were Gateway sub-cloned into pDEST32 (N-terminal GAL4DBD) or pDEST22 (N-terminal GAL4AD). When translated these generated the following peptide sequences: 55, 65, 66, 67, 68, 7169, which are PPD1-DBD, RGA1, RGA1-AD, PPD1-ppd-DBD, PPD1-tify-DBD, PP1-jas*-DBD respectively.
Combinations of bait and prey constructs were used to co-transform yeast strain MaV203 (Invitrogen), with selection on synthetic dropout (SD) SD/-Leu/-Trp agar plates. Transformed strains were tested for interactions using 10 μl droplets of 1 in 10 and 1 in 100 dilutions on SD/-Leu/-Trp/-His plates with different concentrations of 3-aminotriazol (3-AT) (Sigma). The PPD1-RGA1 interaction was tested with PPD1-DBD used as bait. Transformed yeast was spotted as a ten-fold dilution on control medium (−2) or selective medium (−3) with 15 mM 3AT. Controls were empty vectors, DBD, GAL4 DNA binding domain, AD, GAL4 activation domain (FIG. 5).

The next experiment concerns the target T2, NINJA (Arabidopsis thaliana, UniProt Q9SV55).
T2 construct: expressed in transfected cells; host or cells: Nicotiana benthamiana leaves (Agrobacterium infiltration)
Kind of experiment: BiFC interaction with NINJA in Nicotiana benthamiana leaves. The experiment is classed as cell-based. As to conditions: in plants (FIG. 8). An excerpt: The binary BiFC-Gateway YFP vectors pDEST-VYNE(R)^GW (Venus aa 1-173) and pDEST-VYCE(R)^GW (Venus aa 156-239) with N-terminal fusions, were used to construct the following vectors; pDESTnYFP-BZR1, pDESTnYFP-NINJA, pDESTnYFP-PPD1, pDESTcYFP-BZR1, pDESTcYFP-PPD1, pDESTcYFP-PPD1Δppd, pDESTcYFP-PPD1Δtify and pDESTcYFP-PPD1Δjas*. For transient in planta expression of proteins interacting with PPD1 or BZR, NINJA and TPL were Gateway® sub-cloned into pRSh1, to construct pRSh1-NINJA and pRSh1-TPL. […] When expressed these constructs produced proteins listed in sequences 60, 62, 70 71 72 73 74 75 76 77 78 79: including TOPLESS (TPL), NINJA, Bimolecular Fluorescence (BiFC) nYFP, BiFC cYFP, BiFC nYFP-NINJA, BiFC nYFP-BZR1, BiFC cYFP-PPD1, BiFC cYFP-NINJA, BiFC cYFP-BZR1, BiFC cYFP-PPD1-ppd, BiFC cYFP-PPD1-tify, BiFC cYFP-PPD1-jas*.
Transient BiFC experiments were performed using combinations of pDESTnYFP and pDESTcYFP plasmids, with or without plasmids for the expression of NINJA (pRSh1-NINJA) or TPL (pRSh1-TPL) and Agrobacterium-infiltration of Nicotiana benthamiana leaves. […] Two hours prior to sampling for microscopic fluorescence observations leaves were infiltrated with a 1 μg/ml DAPI solution to stain nuclei. YFP fluorescence and DAPI staining was detected using an Olympus Fluoview FV10i confocal laser scanning microscope. […]

Another experiment relates to ryegrass plants. Nature of the experiment: Leaf biomass analysis of grass transformants. Type of experiment: in vivo. Conditions: observed leaf growth, approximately 6 weeks. Here is the method:
An equal number (typically 4-10) of tillers were taken from WT and ryegrass plants transformed with Arabidopsis PPD under one of two green tissue promoters. Tillers were planted into plastic grow bags containing potting mix and pruned to be of equal height. […] The increase in leaf/shoot biomass can be quantified removing the attached above ground portion (leaves and shoots) and drying them at 65° C. for 48 hr then weighing the dry weights.
An equal number (typically 4-10) of tillers were taken from WT and ryegrass plants transformed with Arabidopsis PPD under a constitutive promoter. Tillers were planted into plastic grow bags containing potting mix and pruned to be of equal height. […] The increase in leaf/shoot biomass was quantified removing the attached above ground portion (leaves and shoots) and drying them at 65° C. for 48 hr then weighing the dry weights (Table 2).

T2 sequence (Q9SV55 with tags, fused parts or gaps): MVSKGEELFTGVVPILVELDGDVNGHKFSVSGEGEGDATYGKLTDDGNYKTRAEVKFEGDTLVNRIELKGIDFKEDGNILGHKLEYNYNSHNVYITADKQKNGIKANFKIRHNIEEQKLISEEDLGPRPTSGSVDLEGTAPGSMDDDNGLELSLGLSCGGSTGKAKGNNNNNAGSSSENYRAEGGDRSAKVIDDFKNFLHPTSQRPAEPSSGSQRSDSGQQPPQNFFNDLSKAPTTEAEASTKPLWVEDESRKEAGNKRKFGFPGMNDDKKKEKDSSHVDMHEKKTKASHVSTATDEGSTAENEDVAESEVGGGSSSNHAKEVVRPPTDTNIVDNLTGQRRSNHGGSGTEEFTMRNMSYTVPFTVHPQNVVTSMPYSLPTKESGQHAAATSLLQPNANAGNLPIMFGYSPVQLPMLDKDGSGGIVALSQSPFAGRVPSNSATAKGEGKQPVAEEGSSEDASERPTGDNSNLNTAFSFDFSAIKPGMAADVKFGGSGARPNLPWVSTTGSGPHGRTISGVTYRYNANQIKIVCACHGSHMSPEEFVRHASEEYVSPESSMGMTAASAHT

B1: PPD1: PEAPOD 1 protein of Arabidopsis thaliana, SEQ ID NO: 1 (protein, listed as Arabidopsis thaliana)
chain: MDVGVSPAKSILAKPLKLLTEEDISQLTREDCRKFLKDKGMRRPSWNKSQAIQQVLSLKALYEPGDDSGAGIFRKILVSQPVNPPRVTTTLIEPSNELEACGRVSYPEDNGACHRMDSPRSAEFSGGSGHFVSEKDGHKTTISPRSPAETSELVGQMTIFYSGKVNVYDGIPPEKARSIMHFAANPIDLPENGIFASSRMISKLISKEKMMELPQKGLEKANSSRDSGMEGQANRKVSLQRYREKRKDRKFSKAKKCPGVASSSLEMFLNCQPRMKAAYSQNLGCTGSPLHSQSPESQTKSPNLSVDLNSEGI
For B1, the “interaction with DELLA (RGA1)” value with DELLA (RGA1) is “can directly bind to DELLA”. Besides, in the experiment with NINJA, the “interaction with NINJA” value is recorded as “interacted with NINJA in plants”. Moreover, the “leaf biomass/growth/length/branching compared to WT plants” value in the experiment with ryegrass plants (constitutive promoter) and in the experiment on ryegrass plants (green tissue promoter) was “increase in leaf biomass/growth/length/branching” throughout.
